Our source for the concentration of IL-18 protein detectable values is WO2019194217A1.

This experiment addresses active IL-18 protein (human IL-18, positions 37 to 193), expressed and purified in E. coli (human) (UniProt Q14116). Kind of experiment: capillary western immunoassay (Wes), primary antibody at 1:25 dilution (16 μg/mL).
Chain of UniProt Q14116 (Q14116 37-193 limits assumed): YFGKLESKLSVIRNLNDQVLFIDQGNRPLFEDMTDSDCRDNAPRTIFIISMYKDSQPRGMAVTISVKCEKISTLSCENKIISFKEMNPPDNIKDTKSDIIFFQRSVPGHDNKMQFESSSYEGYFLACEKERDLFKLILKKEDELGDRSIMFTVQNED

Substance “commercially available anti-IL-18 antibody D043-3: clone 25-2G” displayed a concentration of IL-18 protein detectable of 100 ng/mL.
